Assay results reported in the supplement of paper PMC10065799, “High-throughput profiling of sequence recognition by tyrosine kinases and SH2 domains using bacterial peptide display” (eLife, 2023).

How the values were obtained:
Fes = Fes (UniProt P07332); assay: phosphorylation enrichment, bacterial display (enrichment ratio); higher = better substrate or ligand; peptides without Tyr show the background
Fyn = Fyn (UniProt P06241); assay: as above
c-Abl (mouse) = assay: as above
c-Src = assay: as above
MERTK = MERTK (UniProt Q12866); assay: as above
MERTK, sequence (Q12866 whole entry, looked up): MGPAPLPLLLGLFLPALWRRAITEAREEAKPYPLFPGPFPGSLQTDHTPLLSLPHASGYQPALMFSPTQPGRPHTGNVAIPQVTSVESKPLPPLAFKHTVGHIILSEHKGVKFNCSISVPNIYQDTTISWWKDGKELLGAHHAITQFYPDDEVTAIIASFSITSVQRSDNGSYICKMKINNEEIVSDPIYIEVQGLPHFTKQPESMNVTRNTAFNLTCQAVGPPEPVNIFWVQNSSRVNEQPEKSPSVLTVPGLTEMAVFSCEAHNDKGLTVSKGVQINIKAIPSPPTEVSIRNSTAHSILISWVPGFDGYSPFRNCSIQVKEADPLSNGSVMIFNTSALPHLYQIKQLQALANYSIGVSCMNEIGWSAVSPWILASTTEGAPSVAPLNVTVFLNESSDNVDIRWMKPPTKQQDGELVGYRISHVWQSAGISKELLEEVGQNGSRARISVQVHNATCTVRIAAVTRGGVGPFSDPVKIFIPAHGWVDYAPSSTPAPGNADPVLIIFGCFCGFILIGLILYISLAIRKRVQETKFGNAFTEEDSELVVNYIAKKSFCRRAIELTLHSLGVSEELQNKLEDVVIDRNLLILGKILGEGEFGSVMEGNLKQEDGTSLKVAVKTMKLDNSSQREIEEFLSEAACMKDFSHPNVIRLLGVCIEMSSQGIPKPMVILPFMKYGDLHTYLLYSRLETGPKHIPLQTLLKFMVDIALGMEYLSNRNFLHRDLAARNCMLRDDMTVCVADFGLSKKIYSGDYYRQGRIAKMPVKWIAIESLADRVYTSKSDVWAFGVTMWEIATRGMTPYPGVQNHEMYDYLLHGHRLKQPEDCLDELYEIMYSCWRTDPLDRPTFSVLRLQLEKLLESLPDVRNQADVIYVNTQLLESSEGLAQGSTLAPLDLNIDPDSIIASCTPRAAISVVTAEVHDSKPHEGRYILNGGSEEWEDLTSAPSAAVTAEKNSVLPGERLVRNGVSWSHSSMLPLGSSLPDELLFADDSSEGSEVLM

FGFR3 = FGFR3 (UniProt P22607); assay: as above
EPHB2 = EPHB2 (UniProt P29323); assay: as above
EPHB2, sequence (P29323 whole entry, looked up): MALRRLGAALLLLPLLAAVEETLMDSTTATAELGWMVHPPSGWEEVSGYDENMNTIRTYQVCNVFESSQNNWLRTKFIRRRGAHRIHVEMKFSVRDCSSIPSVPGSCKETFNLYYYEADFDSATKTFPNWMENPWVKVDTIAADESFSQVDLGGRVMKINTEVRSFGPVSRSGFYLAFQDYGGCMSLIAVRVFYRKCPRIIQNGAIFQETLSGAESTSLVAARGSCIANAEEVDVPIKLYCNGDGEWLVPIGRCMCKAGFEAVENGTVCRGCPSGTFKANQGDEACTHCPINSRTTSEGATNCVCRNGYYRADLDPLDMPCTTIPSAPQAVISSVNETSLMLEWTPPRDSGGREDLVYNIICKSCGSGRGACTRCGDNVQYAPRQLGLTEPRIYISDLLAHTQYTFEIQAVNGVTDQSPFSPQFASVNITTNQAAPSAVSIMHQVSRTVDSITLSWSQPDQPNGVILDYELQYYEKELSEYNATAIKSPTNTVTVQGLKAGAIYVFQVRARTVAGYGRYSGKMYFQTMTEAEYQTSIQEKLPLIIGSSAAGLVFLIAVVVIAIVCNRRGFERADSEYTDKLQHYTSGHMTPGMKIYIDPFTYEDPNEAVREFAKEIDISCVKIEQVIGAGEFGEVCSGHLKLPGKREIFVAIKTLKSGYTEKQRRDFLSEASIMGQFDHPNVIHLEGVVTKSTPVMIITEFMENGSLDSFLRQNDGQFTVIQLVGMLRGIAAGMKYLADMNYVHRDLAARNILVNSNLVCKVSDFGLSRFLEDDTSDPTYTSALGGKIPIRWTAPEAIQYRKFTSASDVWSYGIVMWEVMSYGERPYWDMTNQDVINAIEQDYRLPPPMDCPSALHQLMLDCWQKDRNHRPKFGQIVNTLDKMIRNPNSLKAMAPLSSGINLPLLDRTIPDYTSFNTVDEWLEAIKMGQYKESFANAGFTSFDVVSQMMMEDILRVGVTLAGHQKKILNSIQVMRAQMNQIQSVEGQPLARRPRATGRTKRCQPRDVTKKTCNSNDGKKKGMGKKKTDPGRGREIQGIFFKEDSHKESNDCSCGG

Jak2 = Jak2 (UniProt O60674); assay: as above
EPHB1 = EPHB1 (UniProt P54762); assay: as above
Fer (mouse) = assay: as above
AncSZ = assay: as above
Hck = Hck (UniProt P08631); assay: as above
Hck, sequence (P08631 whole entry, looked up): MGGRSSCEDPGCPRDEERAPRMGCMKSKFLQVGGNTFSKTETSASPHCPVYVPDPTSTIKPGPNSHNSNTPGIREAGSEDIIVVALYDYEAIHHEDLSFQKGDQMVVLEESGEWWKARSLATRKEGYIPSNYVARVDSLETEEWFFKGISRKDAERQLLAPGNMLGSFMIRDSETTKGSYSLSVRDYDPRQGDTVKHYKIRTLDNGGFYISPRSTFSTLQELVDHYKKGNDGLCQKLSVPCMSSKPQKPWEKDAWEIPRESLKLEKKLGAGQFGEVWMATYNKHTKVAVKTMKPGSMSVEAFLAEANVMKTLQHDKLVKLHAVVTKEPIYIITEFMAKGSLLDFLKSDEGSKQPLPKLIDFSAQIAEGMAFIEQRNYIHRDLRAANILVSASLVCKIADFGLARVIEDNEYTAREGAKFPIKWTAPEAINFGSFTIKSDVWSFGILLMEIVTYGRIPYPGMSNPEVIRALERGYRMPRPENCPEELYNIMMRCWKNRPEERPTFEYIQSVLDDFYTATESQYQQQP

FGFR1 = FGFR1 (UniProt P11362); assay: as above
FGFR1, sequence (P11362 whole entry, looked up): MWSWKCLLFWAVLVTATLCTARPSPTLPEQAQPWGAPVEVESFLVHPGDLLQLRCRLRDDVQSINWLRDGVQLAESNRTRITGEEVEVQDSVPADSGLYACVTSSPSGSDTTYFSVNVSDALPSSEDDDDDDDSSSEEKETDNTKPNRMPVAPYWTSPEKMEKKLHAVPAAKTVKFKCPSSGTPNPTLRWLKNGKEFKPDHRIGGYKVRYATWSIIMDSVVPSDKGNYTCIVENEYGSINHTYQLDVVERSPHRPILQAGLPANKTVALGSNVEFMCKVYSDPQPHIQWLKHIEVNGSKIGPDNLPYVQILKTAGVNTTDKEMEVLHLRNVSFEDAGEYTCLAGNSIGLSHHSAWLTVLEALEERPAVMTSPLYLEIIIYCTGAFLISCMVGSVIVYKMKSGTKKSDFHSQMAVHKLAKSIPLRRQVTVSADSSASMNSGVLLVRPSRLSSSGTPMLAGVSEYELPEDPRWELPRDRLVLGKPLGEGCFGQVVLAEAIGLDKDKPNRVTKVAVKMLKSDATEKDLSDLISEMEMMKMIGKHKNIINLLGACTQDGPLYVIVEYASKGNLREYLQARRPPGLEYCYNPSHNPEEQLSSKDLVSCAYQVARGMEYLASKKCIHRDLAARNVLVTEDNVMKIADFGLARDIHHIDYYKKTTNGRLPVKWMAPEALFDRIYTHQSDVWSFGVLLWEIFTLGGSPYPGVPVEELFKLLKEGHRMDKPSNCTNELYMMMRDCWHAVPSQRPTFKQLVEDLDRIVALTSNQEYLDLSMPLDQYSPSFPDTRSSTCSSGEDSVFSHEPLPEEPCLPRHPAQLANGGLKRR

SHP2-C SH2 = assay: SH2 binding enrichment of the phosphorylated peptide, bacterial display (enrichment ratio); higher = better substrate or ligand; peptides without Tyr show the background
c-Src SH2 = assay: as above
Grb2 SH2 = Grb2 SH2 (UniProt P62993); assay: as above
Grb2 SH2, sequence (P62993 whole entry, looked up, the tested form may be a part): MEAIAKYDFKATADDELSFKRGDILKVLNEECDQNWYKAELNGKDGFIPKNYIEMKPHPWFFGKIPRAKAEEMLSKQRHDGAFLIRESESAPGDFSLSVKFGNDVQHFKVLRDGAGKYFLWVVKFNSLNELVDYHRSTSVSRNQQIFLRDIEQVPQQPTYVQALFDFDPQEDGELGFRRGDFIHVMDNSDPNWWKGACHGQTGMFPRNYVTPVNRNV
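Wherever SH2 binding enrichment of the phosphorylated peptide, bacterial display is given: peptide library displayed on the E. coli surface as eCPX fusions, selected cells deep-sequenced, score is each peptide's frequency after selection divided by its frequency in the input.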
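Wherever phosphorylation enrichment, bacterial display is given: 11-residue human phosphosite peptides and single-mutation variants displayed on the E. coli surface, counted by deep sequencing, each peptide's frequency after selection divided by its frequency in the unselected input library; frequency after pTyr selection over input frequency; kinase dosed for 20-30% of maximal phosphorylation in three min.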

Fyn, sequence (P06241 whole entry, looked up): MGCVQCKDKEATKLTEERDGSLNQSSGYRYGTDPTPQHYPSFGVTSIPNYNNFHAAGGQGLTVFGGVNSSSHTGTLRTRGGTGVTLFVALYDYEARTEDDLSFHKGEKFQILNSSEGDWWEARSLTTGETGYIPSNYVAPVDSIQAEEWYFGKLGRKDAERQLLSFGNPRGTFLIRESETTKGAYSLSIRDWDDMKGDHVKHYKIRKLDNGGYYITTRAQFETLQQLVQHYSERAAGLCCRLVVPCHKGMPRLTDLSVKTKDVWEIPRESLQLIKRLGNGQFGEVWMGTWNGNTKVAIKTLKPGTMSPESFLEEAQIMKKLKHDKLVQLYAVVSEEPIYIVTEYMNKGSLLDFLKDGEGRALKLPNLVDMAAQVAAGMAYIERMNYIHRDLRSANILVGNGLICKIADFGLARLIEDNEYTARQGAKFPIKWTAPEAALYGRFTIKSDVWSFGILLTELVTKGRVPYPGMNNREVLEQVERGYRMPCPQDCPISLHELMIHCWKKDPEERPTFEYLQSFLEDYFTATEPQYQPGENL
Fes, sequence (P07332 whole entry, looked up): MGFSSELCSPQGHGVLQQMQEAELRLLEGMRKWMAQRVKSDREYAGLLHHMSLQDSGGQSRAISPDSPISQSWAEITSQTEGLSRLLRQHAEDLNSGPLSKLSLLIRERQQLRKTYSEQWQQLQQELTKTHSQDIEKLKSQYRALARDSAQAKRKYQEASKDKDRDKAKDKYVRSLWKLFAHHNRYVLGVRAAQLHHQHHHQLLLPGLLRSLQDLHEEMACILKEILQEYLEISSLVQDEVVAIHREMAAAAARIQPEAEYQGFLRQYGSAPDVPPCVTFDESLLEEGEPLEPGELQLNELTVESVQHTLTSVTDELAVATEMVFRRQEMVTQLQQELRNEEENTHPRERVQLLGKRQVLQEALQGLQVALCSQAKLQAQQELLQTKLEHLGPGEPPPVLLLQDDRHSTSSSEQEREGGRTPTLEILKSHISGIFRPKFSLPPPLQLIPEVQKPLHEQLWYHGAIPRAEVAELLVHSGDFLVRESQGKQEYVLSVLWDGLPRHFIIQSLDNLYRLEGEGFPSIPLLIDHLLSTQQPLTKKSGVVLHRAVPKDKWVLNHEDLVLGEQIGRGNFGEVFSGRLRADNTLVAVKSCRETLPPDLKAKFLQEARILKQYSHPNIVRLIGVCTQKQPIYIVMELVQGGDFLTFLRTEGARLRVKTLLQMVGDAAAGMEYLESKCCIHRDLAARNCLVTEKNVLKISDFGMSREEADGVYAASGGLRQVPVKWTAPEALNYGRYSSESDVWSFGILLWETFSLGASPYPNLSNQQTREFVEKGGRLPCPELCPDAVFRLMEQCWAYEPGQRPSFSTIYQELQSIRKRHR

Sequence	phosphorylation enrichment (Fes)	phosphorylation enrichment (Fyn)	phosphorylation enrichment (c-Abl (mouse))	phosphorylation enrichment (c-Src)	phosphorylation enrichment (MERTK)	phosphorylation enrichment (FGFR3)	phosphorylation enrichment (EPHB2)	phosphorylation enrichment (Jak2)	phosphorylation enrichment (EPHB1)	phosphorylation enrichment (Fer (mouse))	phosphorylation enrichment (AncSZ)	phosphorylation enrichment (Hck)	phosphorylation enrichment (FGFR1)	SH2 binding enrichment (SHP2-C SH2)	SH2 binding enrichment (c-Src SH2)	SH2 binding enrichment (Grb2 SH2)
KDHRDYKYQPR [SOX9_Y172_P170R]	0.864	0.61	0.784	0.426	0.456	0.514	0.424	0.779	0.397	0.445	0.534	0.489	0.482	1.08	1.22	1.26
KDQGTYEDYVE [MYL6_Y86]	1.23	0.647	0.866	0.768	0.543	0.721	0.576	1.13	0.493	0.56	1.24	0.617	0.534	0.553	0.784	0.755
KDYETYQPFQN [CTNND2_Y1157]	1.17	6	0.846	4.83	0.514	0.801	7.67	0.883	3.29	1.47	1.72	6.07	0.686	0.664	0.43	0.887
KEAVLYPHLPP [SQSTM1_Y383_A381V]	0.727	0.415	0.798	0.464	0.422	0.646	0.579	0.659	0.409	0.363	0.566	0.385	0.444	0.658	0.514	0.911
KEEEDYKEENN [BMS1_Y651]	1.06	0.475	0.75	0.453	0.422	0.561	0.554	1	0.532	0.55	1.15	0.516	0.468	0.716	0.499	0.769
KELANYYKLHH [AK7_Y390]	0.685	0.453	0.497	0.509	0.844	1.83	1.89	2.44	4.12	0.383	0.708	0.495	2.93	0.622	0.697	0.825
KELAPYDENWF [RPS19_Y48]	1.12	0.506	0.597	0.458	0.421	0.664	0.618	1.06	0.506	0.53	1.2	0.517	0.563	0.685	0.767	0.957
KENITYMKSEQ [L1TD1_Y24_R27S]	0.767	0.358	0.503	0.425	0.39	0.524	0.426	0.585	0.411	0.32	0.806	0.457	0.456	0.629	0.53	1.01
KFDLMYAKCAF [TUBA1A_Y399_R402C]	1.35	0.567	1.06	0.598	0.624	0.841	0.723	1.25	0.72	0.68	1.27	0.677	0.491	0.473	0.557	0.687
KFDLMYAKHAF [TUBA1A_Y399_R402H]	0.987	0.435	0.573	0.44	0.408	0.564	0.543	0.805	0.521	1.07	0.794	0.438	0.397	0.772	0.527	0.847
KFGTNYRVGSS [CPO_Y278_YF]	0.803	0.444	0.725	0.466	0.508	0.567	0.382	0.767	0.422	0.418	1.04	0.465	0.509	0.914	0.586	1.23
KGFCGYSFDDI [TMEM230_Y110_R108C_YF]	1.35	0.526	1.07	1.16	0.471	0.863	0.568	1.28	0.613	0.504	1.18	0.456	0.595	0.516	0.983	0.71
KGLKVYVNGTL [ADGRD1_Y183_E178K]	1.16	0.364	0.584	0.406	0.431	0.677	0.576	0.923	0.524	0.452	1.11	0.441	0.421	0.703	0.549	1.32
KGTAGYTTVAV [RET_Y752_R749T]	0.493	0.359	0.448	0.37	0.349	0.34	0.362	0.398	0.46	0.313	0.517	0.357	0.327	2.15	1.99	0.757
KHTLSFVDVGT [SDHA_Y629_Y629F]	0.691	0.384	0.451	0.292	0.315	0.497	0.495	0.624	0.319	0.371	0.661	0.364	0.348	0.54	0.562	0.862
KIDAKYKKKIE [WDR19_Y1230]	0.891	0.308	0.631	0.346	0.418	0.368	0.373	0.594	0.27	0.401	0.698	0.408	0.368	0.602	0.367	0.601
KINKMYSDRAM	0.624	0.361	0.467	0.345	0.423	0.371	0.377	0.419	0.311	0.336	0.53	0.396	0.417	0.639	0.418	0.632

Sequence	phosphorylation enrichment (Fes)	phosphorylation enrichment (Fyn)	phosphorylation enrichment (c-Abl (mouse))	phosphorylation enrichment (c-Src)	phosphorylation enrichment (MERTK)	phosphorylation enrichment (FGFR3)	phosphorylation enrichment (EPHB2)	phosphorylation enrichment (Jak2)	phosphorylation enrichment (EPHB1)	phosphorylation enrichment (Fer (mouse))	phosphorylation enrichment (AncSZ)	phosphorylation enrichment (Hck)	phosphorylation enrichment (FGFR1)	SH2 binding enrichment (SHP2-C SH2)	SH2 binding enrichment (c-Src SH2)	SH2 binding enrichment (Grb2 SH2)
KKFPDYIQIAR [SGMS2_Y59_M64R_YF]	0.713	0.432	0.657	0.488	0.421	2.26	0.649	1.15	3.85	0.399	0.848	0.478	4.29	0.884	0.825	1.13
KKGIVYIFNGR [ITGAV_Y404]	0.957	0.452	0.565	0.366	0.428	0.501	0.507	0.868	0.403	0.437	0.768	0.423	0.417	1.61	1.86	2.3
KKKKQYKDKFL [CASK_Y708_YF]	0.642	0.701	0.699	0.739	0.782	0.55	0.634	0.724	0.687	0.502	0.893	0.589	0.572	0.408	0.453	0.683
KKKKQYKGKYL [CASK_Y708_D710G]	0.582	0.57	0.529	0.75	0.629	0.584	0.54	0.507	0.502	0.444	0.667	0.513	0.474	0.302	0.436	0.669
KKYFSYAWPFY [BRDT_Y291_H288Y]	1.03	0.383	0.712	0.435	1.96	0.621	0.452	1.24	0.497	0.395	0.937	0.415	0.475	1.66	1.43	1.93
KLFFIYTPGTT [SLC27A4_Y245_S247P_YF]	1.49	0.447	0.848	0.46	0.363	0.877	0.675	1.45	0.637	0.521	1.49	0.509	0.553	0.565	0.39	0.598
KLFRVYCDMNT [FGB_Y269_P265L_YF]	1.33	0.463	0.838	0.463	0.432	0.701	0.619	1.17	0.777	0.523	1.11	0.471	0.548	0.65	0.918	0.75
KLIETYFSKNF [PLP1_Y50_YF]	0.99	0.474	0.668	0.558	0.427	0.589	0.452	0.87	0.474	0.4	0.942	0.519	0.449	0.626	0.542	0.9
KLPDAYEPLIL [G6PD_Y437_R439P]	1.1	0.502	0.79	0.752	0.498	0.674	0.494	0.921	0.55	2.5	1.14	1.08	0.53	0.917	1.49	0.964
KLPDAYERLIL [G6PD_Y437]	0.944	0.491	0.796	0.542	0.522	0.561	0.49	0.591	0.545	0.634	0.756	0.582	0.992	0.723	2.48	0.949
KNDSKYVVKGN [KIT_Y823_N822K]	0.56	0.314	0.531	0.473	0.316	0.444	0.317	0.677	0.326	0.258	0.52	0.379	0.382	0.653	0.572	0.999
KNEVLYDEENH [ARFGEF1_Y314_G316E]	1.4	0.537	0.997	0.582	0.401	0.671	0.618	1.3	0.568	0.5	1.25	0.547	0.591	0.789	0.636	0.664
KNNDGYIDYAE [MCFD2_Y135]	1.13	0.536	0.656	0.465	0.474	0.736	0.658	1.01	0.538	0.464	1.17	0.625	0.606	0.695	1.01	0.945
KNRDVYSSDFF [USP24_Y2134_YF]	0.828	0.833	0.752	0.952	3.39	0.544	1.73	0.693	1.69	0.429	0.651	0.832	0.718	0.55	0.588	0.916
KPGVNYFFQVS	1.38	0.538	0.801	0.408	0.508	1.09	0.577	1.28	0.695	0.582	1.15	0.588	0.85	1.18	0.606	0.993
KQRKEYMHRRQ [IQGAP2_Y710]	0.715	0.477	0.649	0.518	0.452	0.519	0.444	0.636	0.551	0.437	0.696	0.526	0.375	0.392	0.447	0.78
